Test [1] concerns the target T1, HS9A_MOUSE, heat shock protein HSP-90 alpha (HSP 86) (mouse, UniProt P07901 2-733).
T1 construct: Native protein captured from mouse brain extract; identified by mass spectrometry and western blot; also called p97; 97-kilodalton protein
The test is described as follows: peptide affinity matrix pull-down from mouse brain extract, Coomassie-stained SDS-PAGE (FIG. 1A). The procedure:
FIG. 1A Coomassie stained gel, FIG. 1B Western analysis of an identical gel with antibody to beta-COP. MW=molecular weight markers, Total=13,200 rpm supernatant loaded onto column matrix. E47=sample eluted from OTOF CTERM E47 column matrix. BC1=672 BC1, E48=OTOF CTERM E48, CC1=670 CC1. Brain extracts were made in a Potter-Elvehjem Teflon glass homogenizer using 1 ml/100 mg tissue of TNGD (50 mM TRIS 7.5, 75 mM NaCl, 10 mM EGTA, 2 mM EDTA) plus protease inhibitor 10 ul/ml (Sigma P8340). Protein extracts were absorbed to four Sulfolink-peptide affinity matrices and washed four times with TNGD. The column matrix was transferred to PCR tubes and made 1× with SDS buffer (Pierce Cat. No. 39001) and heated at 95° C. for 5 minutes. Samples were separated on a 4-20% polyacrylamide gel. E47 peptide corresponds to otoferlin exon 47 C-terminal. E48 peptide corresponds to otoferlin exon 48 C-terminal. BC1 and CC1 peptides are specific controls for E47 and E48 respectively where a di-serine replaces di-lysine. Antibody to beta-COP (Ocogene cat # PC175) was used at a dilution of 1:1500.

In test [2] the target is T2, recombinant human Hsp90α (Stressgen SPP-776, Lot No. B201401) (human, UniProt P07900 1-732).
T2 construct: Bought recombinant protein; also called purified Hsp90α; purified human Hsp90α
The test is described as follows: peptide affinity column, elution with 600 mM NaCl, silver-stained SDS-PAGE (no eluted protein was detected from the E47 column). The procedure:
The columns was preabsorbed with 100 μl of 10% BSA for 30 minutes at 4° C. and mixed by rotation. The columns were then washed five times with 0.4 ml of TNGD. Four hundred (400) ng of recombinant human Hsp90α (Stressgen SPP-776, Lot No. B201401) in 100 μl of TNGD was added to each column for 30 minutes at 4° C. and mixed by rotation. The unabsorbed protein was removed by centrifugation. The columns were washed five times with 0.4 ml of TNGD, then eluted with 100 μl TNGD+600 mM NaCl. Samples were analyzed on a 4-20% SDS-PAGE gel followed by silver staining using a BIORAD Silver Stain Plus kit (No. 161-0449) as show in FIG. 5. […] The amount of protein added and eluted was determined by scanning the silver stained gel using a Alpha Imager 2200 gel imaging system. Approximately 10% of the protein corresponding to Hsp90 molecular weight was eluted with 600 mM NaCl+TGND from the E48 column while no eluted protein was detected with the same elution conditions from the E47 column.

Where no end group is shown, it is not given here.

The values below come from patent US7491701 (BOYS TOWN NATIONAL RESEARCH HOSPITAL, dated 2009).

B1: OTOF CTERM E47 (peptide)
peptide: CYSLPGYLAKKILGA
modifications: not fully specified (residue 1); also: N-terminal Cys coupled to Sulfolink gel matrix (immobilised)
notes: also called E47 peptide; exon 47 (E47) otoferlin C-terminal peptide
As for B1, the binding result in test [1] and in test [2] was “no binding” each time.

B2: OTOF CTERM E48 (peptide)
peptide: CYSLPGYMVKKLLGA
modifications: not fully specified (residue 1); also: N-terminal Cys coupled to Sulfolink gel matrix (immobilised)
notes: also called E48 peptide; exon 48 (E48) otoferlin C-terminal peptide
With B2, the binding result in test [1] was “binds”.
